± gives the uncertainty stated by the source.
Assay: protein stability index of a GFP-peptide fusion (yeast GPS) (PSI 1-4); higher = more stable; sorted into four equal gates, so the index is relative within each strain
Procedure, shortened: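 Peptides tiling yeast proteins in 17-residue segments were fused downstream of GFP, with Cherry expressed from the same plasmid. As a pooled library in yeast, mid-log cultures grown in leucine-free medium were sorted into four equal gates by GFP/Cherry fluorescence ratio. Gate plasmids were PCR-amplified and Illumina-sequenced, and barcodes linked reads to strains. Each peptide received a protein stability index equal to the sum of each gate's read frequency times its gate number.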

Sequence	protein stability index (doa10∆)	protein stability index (pdr5∆)	protein stability index (san1∆)	protein stability index (ubr1∆)
HLSYCSNLTIYPIYELL [GRR1]	2.54 ± 0.071	2.87 ± 0.1	3.17 ± 0.062	3.06 ± 0.074
GENAAEKPDNSNHNNLN [SNF2]	3.01 ± 0.068	3.25 ± 0.064	3.27 ± 0.05	3.21 ± 0.035
APPQRPRFNRENKVSPA [RPS26A]	3.38 ± 0.15	2.83 ± 0.17	3 ± 0.072	2.95 ± 0.12
RQCFREKANDIGFHKYR [RPS29B]	3.34 ± 0.15	3.35 ± 0.13	2.96 ± 0.1	2.88 ± 0.1
ISTAKAWGALITTFVKR [YML103C/NUP188]	1.82 ± 0.051	2.22 ± 0.051	1.64 ± 0.063	1.66 ± 0.058
SGNIQLDEIIEIARQMR [RPL12A]	3.07 ± 0.12	3 ± 0.12	3.05 ± 0.08	3.35 ± 0.14
STNSNSKPSTASPSAHT [RPN4]	2.63 ± 0.055	3.01 ± 0.086	2.75 ± 0.061	2.82 ± 0.042
QNNEQNPIDPFNIIREF [YDL116W/NUP84]	3.07 ± 0.052	3.15 ± 0.051	3.2 ± 0.04	3.17 ± 0.041
PDYYVSILSFVDKELLE [RPT2]	2.6 ± 0.054	2.55 ± 0.048	2.39 ± 0.05	2.59 ± 0.046
GIRAPKGALMYGPPGTG [RPT5]	2.86 ± 0.14			1.32 ± 0.11
LREAPADYWTHAYRDVL [SNF6]	2.55 ± 0.12	2.7 ± 0.1	3.42 ± 0.17	2.38 ± 0.061
GEICKNYELEKIADNIS [YDL116W/NUP84]	3.13 ± 0.098	3.12 ± 0.084	2.96 ± 0.061	3.09 ± 0.061
KESEISHNENKMDFSSK [YIL149C/MLP2]	2.99 ± 0.086	3 ± 0.093	3.16 ± 0.086	3.19 ± 0.24
MVLVQDLLHPTAASEAR [RPS27A]	2.45 ± 0.19	3.37 ± 0.089	3.17 ± 0.19	3.17 ± 0.11
AEQFKHQHGDKVDIFEI [FAS2]				3.06 ± 0.21
KIFIKDPKFVNSLLAKL [YML103C/NUP188]	2.25 ± 0.14	2.25 ± 0.063	1.72 ± 0.1	2.39 ± 0.068
SNILLNSLTKYPDLKAF [MED1]	1.98 ± 0.14	2.41 ± 0.085	2.24 ± 0.2	1.71 ± 0.094
QQRIREIGLLPEDALVN [SMC3]			3.27 ± 0.2	3.25 ± 0.13
YPESISNELIEHFSHFG [YDL088C/ASM4]	2.76 ± 0.067	3.02 ± 0.048	2.89 ± 0.043	2.93 ± 0.034
NLLIQRLNFNQNSSKIV [SWI3]	2.71 ± 0.053	2.81 ± 0.051	3.06 ± 0.038	2.93 ± 0.041
IKGPEFKFSGTVSSDVF [YLR335W/NUP2]		3.17 ± 0.18		
DGDASKPAFSFGAKPDE [YJL041W/NSP1]	3.32 ± 0.058	3.25 ± 0.058	3.15 ± 0.036	3.42 ± 0.043
KILQKRSISKELIVSEE [SIR3]	2.37 ± 0.064	2.52 ± 0.075	2.28 ± 0.066	2.37 ± 0.052
PKAMTDTDNECVAAWGV [HRT1]	3.23 ± 0.12	3.48 ± 0.17	3.03 ± 0.13	3.05 ± 0.042
PHHNQSPRNTYQCAMGK [RET1]	2.68 ± 0.17	2.97 ± 0.14	3 ± 0.14	2.89 ± 0.24
KAIFQFVCRGMAATQTI [ECM29]	1.52 ± 0.051	1.73 ± 0.048	1.46 ± 0.17	1.48 ± 0.049
PSENLLNIRIQTYGETT [RPC19]	1.85 ± 0.27	1.18 ± 0.13		1.33 ± 0.26

Sequence	protein stability index (doa10∆)	protein stability index (pdr5∆)	protein stability index (san1∆)	protein stability index (ubr1∆)
HVKIRATGGTRTKTPGP [RPS14B]	1.38 ± 0.13	1.84 ± 0.15	2.25 ± 0.25	
AKQAKIRAGEFDVVLTT [SNF2]	3.56 ± 0.11	3.3 ± 0.13	2.57 ± 0.12	3.23 ± 0.11
HYLVNLTSPAFGPHVDV [GRR1]	2.27 ± 0.14	2.87 ± 0.12	2.16 ± 0.25	3.42 ± 0.28
EPENNTVIEGVKEESQP [SWI3]	3.21 ± 0.095	3.13 ± 0.092	3.08 ± 0.059	2.99 ± 0.081
RVIKDFKKLNSKNMSKS [YMR153W/NUP53]	1.95 ± 0.16		2.64 ± 0.21	
TMTISHLLLGFQVSNVI [YJL039C/NUP192]	1.41 ± 0.038	1.72 ± 0.039	1.75 ± 0.06	1.77 ± 0.034
DFTQEDELRKQELISKA [ISW2]	3.11 ± 0.12	3.1 ± 0.076	3.03 ± 0.083	3.09 ± 0.09
NKSFIVDQGQIYRDRST [ITC1]	3.1 ± 0.11	3.35 ± 0.12	3.32 ± 0.064	3.32 ± 0.052
VSDSNDDVRRAAVIALG [RPN2]	3.26 ± 0.1	3.26 ± 0.13	2.7 ± 0.17	3.42 ± 0.14
MSIVFGDKFSEDFRIQF [UBP6]	3.28 ± 0.13	2.71 ± 0.1	2.2 ± 0.092	2.37 ± 0.063
ENIIQMEMIENRTMDGK [FAS1]	2.78 ± 0.084	2.81 ± 0.11	2.81 ± 0.12	3.02 ± 0.069
LAFKKNEMLLKRVTKVK [MTW1]	1.77 ± 0.065	2.03 ± 0.052	2.31 ± 0.12	2.03 ± 0.035
AFGFVDRTLPHFSKDDY [RPO21]	2.81 ± 0.068	3.17 ± 0.05	2.85 ± 0.052	3.16 ± 0.035
QQQTNALNGIDINTVNT [GRR1]	3.31 ± 0.053	3.25 ± 0.055	3.24 ± 0.044	3.19 ± 0.05
VQVSKAGGLPMDALTLM [RRP45]	1.28 ± 0.12	1.23 ± 0.18	1.1 ± 0.2	1.08 ± 0.14
QGITRNVVNYLSINKNF [RPC17]	1.31 ± 0.059	1.62 ± 0.051	1.23 ± 0.093	1.52 ± 0.038
SNLKISLVKYPELLDSL [SWI1]	2.76 ± 0.074	2.69 ± 0.058	2.71 ± 0.074	2.96 ± 0.056
TDTSTTATAATNGNNAG [MED6]	3.2 ± 0.29	3.06 ± 0.13	3.39 ± 0.091	3.29 ± 0.096
GKILLKGDNITLITSAD [SME1]	2.62 ± 0.092	3.23 ± 0.1	2.77 ± 0.092	3.2 ± 0.053
GCLNFVDENDEVLLAGF [RPS23A]	1.3 ± 0.083	1.53 ± 0.074	1.5 ± 0.095	1.27 ± 0.068
QLNEKLVGRLRKCETQK [YCS4]	2.03 ± 0.086	1.44 ± 0.062	2.22 ± 0.1	2 ± 0.061
EYIFEAHEIIKREEKAM [CDC53]	1.77 ± 0.039	2.39 ± 0.088	2.54 ± 0.086	2.28 ± 0.043
MEIVANAKESNYTDLIW [MED1]	3.27 ± 0.094	3.41 ± 0.16	3.44 ± 0.078	2.83 ± 0.081
EKSPDPTIRSNAVLGLG [YCS4]	2.38 ± 0.052	2.26 ± 0.054	2.3 ± 0.074	2.53 ± 0.043
KLSDIFLSKPSKALYPD [SNF2]	2.53 ± 0.041	2.84 ± 0.049	2.61 ± 0.042	2.7 ± 0.041
VREFLEKNYDRKEPPAT [PRE6]	3.29 ± 0.13	3.28 ± 0.1	3.11 ± 0.071	3.3 ± 0.068
KKGKSSDKDATTDGKND [RPN1]		3.28 ± 0.2	3.44 ± 0.16	3.52 ± 0.2

From the supplement of paper PMC9732359
